Measurements: patent US11091559B2, “Anti-ALK antibodies and methods for use thereof” (Celldex Therapeutics, Inc., priority 2015, dated 2021)

Tests used:
[1] = target: C-terminal region of human ALK ECD (T637-S1038) (Homo sapiens, UniProt Q9UM73); assay: Competitive binding assay (epitope binning) by flow cytometry; settings: antibodies to the C-terminal region
Procedure: Antibodies that bind to the C-terminal region of human ALK ECD (T637-S1038) were further characterized using a competitive binding assay. A pairwise matrix approach was used whereby each antibody was fluorescently labeled and tested for its ability to bind to ALK-expressing cells pre-incubated with an unlabeled antibody. The ability of both antibodies to bind the C-terminal domain simultaneously was tested via flow cytometry. If both antibodies bound simultaneously, they were put into different bins and considered to belong to a separate epitope class.

[2] = tested on: ALK (total protein levels in NB1 cells); assay: ALK turnover (total protein levels) by Western blot, 24 hour treatment of NB1 cells; assay type: cell-based, human; parameters: key: − none; + weak; ++ moderate; +++ strong
Description: FIG. 5 depicts a Western blot of a panel of ALK antibodies.
See also Table 18, below.

[3] = target: murine ALK (purified mouse ALK antigen) (Mus musculus, UniProt P97793); assay: Mouse ALK cross-reactivity, solid-state ELISA; assay type: binding; parameters: key: − none; + weak; ++ moderate; +++ strong; settings: cross-reactivity with murine ALK
murine ALK (purified mouse ALK antigen), sequence (P97793 19-1042 limits assumed): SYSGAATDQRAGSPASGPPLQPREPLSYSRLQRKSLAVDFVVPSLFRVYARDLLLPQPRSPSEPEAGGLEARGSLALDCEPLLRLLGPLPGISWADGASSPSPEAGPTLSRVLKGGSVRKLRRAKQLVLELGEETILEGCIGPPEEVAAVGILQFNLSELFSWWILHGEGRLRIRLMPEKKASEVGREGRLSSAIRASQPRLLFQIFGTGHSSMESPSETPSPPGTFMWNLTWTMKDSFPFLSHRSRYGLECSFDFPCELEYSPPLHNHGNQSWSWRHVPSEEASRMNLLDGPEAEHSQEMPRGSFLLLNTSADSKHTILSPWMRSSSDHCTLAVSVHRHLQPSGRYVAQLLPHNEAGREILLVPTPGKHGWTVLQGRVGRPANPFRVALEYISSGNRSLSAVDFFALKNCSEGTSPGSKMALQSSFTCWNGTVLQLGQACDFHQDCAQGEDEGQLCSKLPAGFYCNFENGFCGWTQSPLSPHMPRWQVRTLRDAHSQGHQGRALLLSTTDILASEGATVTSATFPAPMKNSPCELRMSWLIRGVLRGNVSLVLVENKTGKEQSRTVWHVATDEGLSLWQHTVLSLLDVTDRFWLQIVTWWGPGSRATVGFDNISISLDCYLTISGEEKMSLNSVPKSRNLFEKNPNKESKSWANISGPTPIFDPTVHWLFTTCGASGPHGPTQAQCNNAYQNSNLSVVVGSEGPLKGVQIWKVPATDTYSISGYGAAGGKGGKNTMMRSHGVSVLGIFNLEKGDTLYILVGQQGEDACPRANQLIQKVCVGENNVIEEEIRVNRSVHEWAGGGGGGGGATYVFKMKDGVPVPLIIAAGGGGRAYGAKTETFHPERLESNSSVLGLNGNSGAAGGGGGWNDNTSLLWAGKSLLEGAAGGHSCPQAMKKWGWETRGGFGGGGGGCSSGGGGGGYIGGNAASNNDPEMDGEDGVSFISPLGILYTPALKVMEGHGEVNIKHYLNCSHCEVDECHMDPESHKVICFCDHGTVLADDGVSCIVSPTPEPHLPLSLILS
Procedure: Purified mAbs were evaluated for their ability to bind murine ALK by solid-state ELISA, or flow cytometry on Neuro-2a cells that express low levels of endogenous murine ALK. […]

[4] = tested on: ALK (basal phosphorylation in NB1 cells); assay: Western blot of ALK phosphorylation in NB1 cells; assay type: cell-based, human; settings: effect in words
Procedure: Lysed cells were subjected to SDS-PAGE, transferred to nitrocellulose and immunoblotted with antibodies against total, and phospho-specific ALK, AKT, and MAPK. FIG. 4B depicts an ELISA of NB1 cells grown in media with reduced serum and treated with 30-100 nM of each antibody for 1-2 hours. Cell lysates were incubated on ELISA plates with an anti-ALK antibody, followed by incubation with a pan phosphotyrosine antibody coupled to HRP.
Cell lysates were subjected to SDS-PAGE and transferred to nitrocellulose. Immunoblotting was performed with antibodies against total, and phospho-specific ALK, AKT, and MAPK (purchased from Cell Signaling and utilized per manufacturer's instructions). HRP (horse radish peroxidase)-conjugated secondary antibodies (Thermo Scientific, Waltham, Mass.) were used along with Supersignal West Pico Chemiluminescent Substrate (Thermo Scientific, Waltham, Mass.) to image blots.
Anti-ALK monoclonal antibodies generated in Example 1 were evaluated via Western blotting for their ability to activate or inhibit basal levels of ALK phosphorylation in NB1 cells (FIG. 4A). A subset of ALK antibodies stimulated ALK tyrosine phosphorylation and a different subset of antibodies inhibited basal levels of ALK phosphorylation. See also Table 18, below. […] That is, ALK antibodies that stimulated ALK tyrosine phosphorylation increased MAPK and AKT phosphorylation, whereas ALK antibodies that inhibited ALK tyrosine phosphorylation decreased basal levels of MAPK and AKT phosphorylation (FIG. 4A). Similar results were obtained in ELISA-based ALK phosphorylation assays from lysates of NB1 cells treated with ALK antibodies (FIG. 4B).

[5] = target: human ALK (hALK, purified ALK protein) (Homo sapiens, UniProt Q9UM73); assay: Monovalent affinity of humanized antibodies, BLitz System, human ALK; assay type: binding; settings: BLitz, purified ALK protein at 70 μg/mL, single binding site fit; antibody by plate position of Table 19
human ALK (hALK, purified ALK protein), sequence (Q9UM73 with tags, fused parts or gaps): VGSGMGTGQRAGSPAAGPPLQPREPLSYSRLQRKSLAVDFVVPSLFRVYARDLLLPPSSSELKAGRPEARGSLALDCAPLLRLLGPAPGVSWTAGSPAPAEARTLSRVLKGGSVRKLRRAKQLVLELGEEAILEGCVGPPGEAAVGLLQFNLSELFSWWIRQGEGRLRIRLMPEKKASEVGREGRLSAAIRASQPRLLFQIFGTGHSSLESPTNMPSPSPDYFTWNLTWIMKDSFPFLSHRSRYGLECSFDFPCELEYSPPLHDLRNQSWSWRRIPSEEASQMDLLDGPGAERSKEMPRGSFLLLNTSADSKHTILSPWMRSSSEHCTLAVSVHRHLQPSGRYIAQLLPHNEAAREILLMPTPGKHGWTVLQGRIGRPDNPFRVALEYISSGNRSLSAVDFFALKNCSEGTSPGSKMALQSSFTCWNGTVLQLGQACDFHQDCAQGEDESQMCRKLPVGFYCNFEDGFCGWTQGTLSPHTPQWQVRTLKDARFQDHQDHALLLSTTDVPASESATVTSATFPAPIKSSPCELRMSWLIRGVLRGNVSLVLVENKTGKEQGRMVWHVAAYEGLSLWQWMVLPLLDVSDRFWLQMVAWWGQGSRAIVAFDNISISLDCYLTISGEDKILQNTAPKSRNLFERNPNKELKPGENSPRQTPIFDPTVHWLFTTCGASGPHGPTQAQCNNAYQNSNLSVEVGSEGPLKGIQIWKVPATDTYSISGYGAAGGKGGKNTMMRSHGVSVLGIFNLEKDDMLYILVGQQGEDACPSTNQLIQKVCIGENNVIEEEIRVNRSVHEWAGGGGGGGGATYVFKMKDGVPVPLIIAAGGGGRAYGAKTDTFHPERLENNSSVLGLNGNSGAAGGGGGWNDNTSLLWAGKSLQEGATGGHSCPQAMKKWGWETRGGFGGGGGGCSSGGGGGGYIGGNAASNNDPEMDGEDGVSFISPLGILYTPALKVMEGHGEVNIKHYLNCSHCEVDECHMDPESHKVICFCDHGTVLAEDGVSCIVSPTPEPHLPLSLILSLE
Procedure: The humanized ALK antibodies designed in Example 1 were tested for monovalent affinity, wherein the kinetic data are fit to a single binding site equation to obtain relative affinity values.
Kinetic measurements of the monovalent affinity of the 96 humanized ALK antibody variants (Ab351-Ab446) were collected. Affinity ranking was performed using a BLitz® System (ForteBio, Menlo Park, Calif.). Humanized anti-ALK antibodies were immobilized at 0.5 mg/mL using Protein A tips. Once baseline stability was ensured, purified ALK proteins at 70 μg/mL were added. The resulting kinetic data were fit to a single binding site equation, from which the quoted monovalent KD values were derived.
Amino acid residues that differ between rat ALK and mouse ALK are boxed. KD values for both NB1 (human) cells and Neuro2a (mouse) cells were also determined.

C-terminal region of human ALK ECD (T637-S1038), sequence (Q9UM73 19-1620): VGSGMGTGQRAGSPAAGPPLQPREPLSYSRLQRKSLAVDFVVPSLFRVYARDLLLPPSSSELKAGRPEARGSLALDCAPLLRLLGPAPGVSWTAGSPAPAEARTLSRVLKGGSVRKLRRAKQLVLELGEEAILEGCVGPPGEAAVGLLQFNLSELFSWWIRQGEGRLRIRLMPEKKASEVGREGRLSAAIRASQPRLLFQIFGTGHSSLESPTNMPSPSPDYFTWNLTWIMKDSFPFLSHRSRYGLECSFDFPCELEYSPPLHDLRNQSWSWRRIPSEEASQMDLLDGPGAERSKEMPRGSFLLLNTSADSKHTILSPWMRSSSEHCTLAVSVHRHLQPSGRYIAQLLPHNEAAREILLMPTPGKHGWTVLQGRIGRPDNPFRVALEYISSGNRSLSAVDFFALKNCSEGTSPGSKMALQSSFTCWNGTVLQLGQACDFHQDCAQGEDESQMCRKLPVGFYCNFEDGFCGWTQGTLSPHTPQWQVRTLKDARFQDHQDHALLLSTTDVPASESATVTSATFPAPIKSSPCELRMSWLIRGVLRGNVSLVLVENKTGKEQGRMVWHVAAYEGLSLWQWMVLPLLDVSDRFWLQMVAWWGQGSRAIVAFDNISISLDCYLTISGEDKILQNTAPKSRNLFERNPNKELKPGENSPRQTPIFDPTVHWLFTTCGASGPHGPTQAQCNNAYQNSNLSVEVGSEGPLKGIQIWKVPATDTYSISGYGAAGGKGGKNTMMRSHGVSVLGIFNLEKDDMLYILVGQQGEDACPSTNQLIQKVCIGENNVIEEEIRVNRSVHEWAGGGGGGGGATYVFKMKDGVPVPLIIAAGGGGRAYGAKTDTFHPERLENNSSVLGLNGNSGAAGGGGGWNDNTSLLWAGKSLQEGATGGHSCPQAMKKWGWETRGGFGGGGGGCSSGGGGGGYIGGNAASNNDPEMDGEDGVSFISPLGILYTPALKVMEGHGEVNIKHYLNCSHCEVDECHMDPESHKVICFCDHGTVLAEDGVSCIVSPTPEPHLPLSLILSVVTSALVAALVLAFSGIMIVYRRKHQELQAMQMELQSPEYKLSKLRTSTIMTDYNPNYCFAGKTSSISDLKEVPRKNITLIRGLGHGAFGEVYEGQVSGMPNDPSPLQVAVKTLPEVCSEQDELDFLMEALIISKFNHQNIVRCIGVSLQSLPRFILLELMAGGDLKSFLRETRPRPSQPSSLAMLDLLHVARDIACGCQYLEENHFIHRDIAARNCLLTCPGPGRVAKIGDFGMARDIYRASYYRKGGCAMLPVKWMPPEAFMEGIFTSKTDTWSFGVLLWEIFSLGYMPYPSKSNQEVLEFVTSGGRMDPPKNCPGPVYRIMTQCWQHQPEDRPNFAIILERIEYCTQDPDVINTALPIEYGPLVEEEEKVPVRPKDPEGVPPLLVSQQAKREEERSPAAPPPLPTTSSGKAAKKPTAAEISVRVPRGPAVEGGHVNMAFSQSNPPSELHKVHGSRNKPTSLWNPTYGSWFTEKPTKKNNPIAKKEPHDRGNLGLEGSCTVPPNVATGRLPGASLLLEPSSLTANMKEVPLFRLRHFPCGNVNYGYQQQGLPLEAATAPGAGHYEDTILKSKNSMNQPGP

Molecule	Bin/Domain (bin) [1]	mouse ALK binding [3]	Kd [5]	ALK turnover [2]	ALK phosphorylation [4]
Ab330: anti-ALK monoclonal antibody; VL SEQ ID NO: 415, VH SEQ ID NO: 416 (antibody, V domains shown, VH domain - Ab330; VL domain - Ab330) VH: EVQVVETGGGVVQPGKSLEITCATSGLTFSTAWMYWVRQSSDRRLEWIARIKDKSNKFASDYVESVRGRFTISRDDSRSSVYLQMNNLKEEDTATYYCTTSYGYAWGQGVMVTVSS VL: DIQMTQSPSSMSASLGDRVTITCQASQDIGNYLIWFQQKPGKSPRPLIYYATNLANGVPSRFSGSRSGSEYSLTITSLESEDMADYHCLQYKQHLTFGSGTKLEIER		+			inhibitor
Ab331: anti-ALK monoclonal antibody; VL SEQ ID NO: 417, VH SEQ ID NO: 418 (antibody, V domains shown, VH domain - Ab331; VL domain - Ab331) VH: EVQVVETGGGVVQPGKSLEITCATSGLTFSTAWMYWVRQSSDRRLEWIARIKDKSNNFASDYVESVRGRFTISRDDSRSSVYLQMNNLKEEDTATYYCTTSYGYAWGQGVMVTVSS VL: DIQMTQSPSSMSASLGDRITITCQASQDIGNYLIWFQQKPGKSPRPLIYYATNLANGVPSRFSGSRSGSEYSLTITSLESEDMADYHCLQYKQHLTFGSGTKLEIER		−			inhibitor
Ab322: anti-ALK monoclonal antibody; VL SEQ ID NO: 399, VH SEQ ID NO: 400 (antibody, V domains shown, VH domain - Ab322; VL domain - Ab322) VH: QVQLQQSGAELAKPGASVKLSCKASGYTFTNYWMHWVKQRPGQGLEWIGYINPSSGYTKYNQKFKDKATLTADKSSSTAYMQLSSLTYEDSAVYYCARDYYGSSSWFAYWGQGTLVTVSA VL: DIVMTQSQRFMSTSVGDRVSVTCKASQNVGTNVAWYQQKPGQSPKALIYSASYRYSGVPDRFTGSGSGTDFTLTVSNVQSEDLAEYFCQQYNSYPYMYTFGGGTKLEIKR	2	−		−	inhibitor
Ab437: humanized anti-ALK antibody; VL SEQ ID NO: 428, VH SEQ ID NO: 431 (antibody, V domains shown, VH domain - Ab353; VL domain - Ab435) VH: EVQLVQSGAEVKKPGTSVKLSCKASGYTFTSSAMQWVKQAPGQGLEWIGYIKPSSGYTKYNQKFKDKATLTADKSTSTAYMELSSLRSEDTAVYYCARDYYGSSSWFAYWGQGTLVTVSS VL: EIVMTQSQATMSTSVGERATLSCKASQNVGTNVAWYQQKPGQSPKALIYGASTRATGVPARFSGSGSGTDFTLTISSVEPEDFAVYYCQQYNSYPYMYTFGQGTKLEIK			6.08 mM		

Now from value to molecule, other results behind:

Bin/Domain (bin) [1]	mouse ALK binding [3]	Kd [5]	Molecule	ALK turnover [2]	ALK phosphorylation [4]
1	+		Ab325: anti-ALK monoclonal antibody; VL SEQ ID NO: 405, VH SEQ ID NO: 406 (antibody, V domains shown, VH domain - Ab325; VL domain - Ab325) VH: QVQLQQSGAELVKPGASVKISCKASGYAFSSYWMNWVKQRPGKGLEWIGQIYPGDGDTNYNGKFKGKATLTADKSSSTAYMQLSSLTSEDSAVYFCARWYYGSYYAMDYWGQGTSVTVSS VL: DIQMTQTTSSLSASLGDRVTISCRASQDISNYLNWYQQKPDGTVKLLIYYTSRLHSGVPSRFSGSGSGTDYSLTISNLEQEDIATYFCQQGNTLPRTFGGGTKLEIKR	++	
	+		Ab332: anti-ALK monoclonal antibody; VL SEQ ID NO: 419, VH SEQ ID NO: 420 (antibody, V domains shown, VH domain - Ab332; VL domain - Ab332) VH: EVQLQQSGPELVKPGTSVKISCKASGYTFTDYYMNWMKQSHGKSLEWIGDINPNNGVTSYNQKFKGKATLTVDKSSSTAYMELRSLTSEDSAVYYCAREDYGSNYFDYWGQGTTLTVSS VL: DIVLTQSPASLAVSLGQRATISCKASQSVDYDGDSYMNWYQQKPGQPPKLLIYAASNLESGIPARLSGSGSGTDFTLNIHPVEEEDAATYYCQQSNEDPPTFGGGTKLEIRR		weak agonist
2	+++		Ab328: anti-ALK monoclonal antibody; VL SEQ ID NO: 411, VH SEQ ID NO: 412 (antibody, V domains shown, VH domain - Ab328; VL domain - Ab328) VH: QVQLQQSGAELAKPGASVKLSCKASGYTFTSYWMHWVKQRPGQGLEWIGYINPSSGYTKYNQKFKDKATLTADKSSSTAYMQLSSLTFEDSAVYYCARDYYGSSSWFAYWGQGTLVTVSA VL: DIVMTQSQKFMSTSVGDRVSVTCKASQNVGTNVAWYQQKPGHSPKALIYSASYRYSGVPDRFTGSGSGTDFTLTISNVQSEDLAEYFCQRYNSYPYMFTFGGGTKLEIKR	+++	weak agonist
1	++		Ab320: anti-ALK monoclonal antibody; VL SEQ ID NO: 395, VH SEQ ID NO: 396 (antibody, V domains shown, VH domain - Ab320; VL domain - Ab320) VH: QVQLQQSGAELVKPGASVKISCKASGYAFSSYWMNWVKQRPGKGLEWIGQIYPGDGDTNYNGKFKGKATLTADKSSSTAYMQLSSLTSEDSAVYFCASYYYGSKAYWGQGTLVTVSA VL: DIQMTQSPASLAASVGETVTITCRASENIYYSLAWYQQKQGKSPQLLIYNANSLEDGVPSRFSGSGSGTQYSMKINSMQPEDTATYFCKQAYDVPFTFGSGTKLEIKR	−	no effect
	+++		Ab329: anti-ALK monoclonal antibody; VL SEQ ID NO: 413, VH SEQ ID NO: 414 (antibody, V domains shown, VH domain - Ab329; VL domain - Ab329) VH: QVQLKESGPGLVKPSATLSLTCTVSGFSLTSYHVCWIRQTPGKGLEWMGVIWGDGRTTYNPPLKSRLSISRDTSKSQVFLKMSSLKTEDTATYYCARATMTGHGDAWGQGASVTVSS VL: DIQMTQSPASLSASLEEIVTITCQASQDIDNYLSWYQQKPGKSPHLLIHSATSLADGVPSRFSGGRSGTQFSLKINRLQVEDTGIYYCLQHYSGWTFGGGTKLELKR		weak agonist
